2 substances from paper doi:10.1101/871988 can be followed below.

The target in the experiment is recombinant human scavenger receptor B1 (SRB1) (human) (UniProt Q8WTV0). Briefly: SPR.
Chain of UniProt Q8WTV0 (Q8WTV0 whole entry): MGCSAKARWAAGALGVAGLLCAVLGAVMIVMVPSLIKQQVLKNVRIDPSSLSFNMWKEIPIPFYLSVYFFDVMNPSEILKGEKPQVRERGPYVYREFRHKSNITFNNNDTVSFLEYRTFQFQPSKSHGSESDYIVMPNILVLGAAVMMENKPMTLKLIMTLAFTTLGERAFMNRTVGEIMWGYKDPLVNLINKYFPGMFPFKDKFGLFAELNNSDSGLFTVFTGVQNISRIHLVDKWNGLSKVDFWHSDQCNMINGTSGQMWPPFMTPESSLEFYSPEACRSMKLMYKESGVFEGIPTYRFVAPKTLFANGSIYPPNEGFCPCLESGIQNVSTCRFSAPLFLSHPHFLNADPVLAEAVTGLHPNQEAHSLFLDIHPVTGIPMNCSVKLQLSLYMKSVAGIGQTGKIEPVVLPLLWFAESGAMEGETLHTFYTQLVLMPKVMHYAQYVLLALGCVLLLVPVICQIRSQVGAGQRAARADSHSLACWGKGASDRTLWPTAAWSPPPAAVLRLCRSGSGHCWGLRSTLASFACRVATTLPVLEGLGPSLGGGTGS

One may read the Kd as the concentration at which binding is half-saturated. On to “human high density lipoprotein (HDL) (from UniProt P02647 19-267) (complex)”, for which the Kd stood at 18.7 nM.

“recombinant dengue virus non-structural protein 1 (DENV NS1) (natural protein)”: the Kd is 47 nM.
